{"source": "patent US20090030181A1", "about": "(KOREA RESEARCH INSTITUTE OF BIOSCIENCE AND BIOTECHNOLOGY, published 2009)", "binders": {"B1": {"name": "native p53 TAD(49-54) peptide (peptide)", "peptide": "DIEQWF-NH2", "notes": "Synthetic, solid phase; also called p53 (49-54); p53(49-54) peptide"}}, "target": "T1, human mdm2 N-terminal domain, mdm2(3-109) (human, UniProt Q00987 3-109)", "T1 construct": "Expressed in E. coli BL21(DE3) from a pLM1 vector; Uniformly 15N-labelled (or 15N,13C-labelled) where it is the observed species in NMR; unlabelled when used as titrant and when immobilised on the CM5 chip", "T1 sequence (Q00987 3-109 limits assumed)": "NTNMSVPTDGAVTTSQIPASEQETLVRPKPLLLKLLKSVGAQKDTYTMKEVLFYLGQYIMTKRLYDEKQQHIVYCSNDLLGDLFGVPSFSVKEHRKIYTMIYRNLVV", "experiment": "SPR (BIAcore 2000), mdm2(3-109) amine-coupled on CM5, peptide injected at 1.5625-50 µM, equilibrium fit", "note": "Where no end group is shown, it is not given here."}
{"binder": "B1", "values": [{"measurement": "Kd", "value": 25, "unit": "µM"}]}
